# Laboratory results from US20220112276A1 (Janssen / Centocor, published 2022).
# Biological target: T1, recombinant human pIgR (hpIgR) (human, UniProt P01833 19-638, limits assumed)
# T1 construct: probably the ECD
# Assay: ELISA, periplasmic VHH, BSA subtracted
# Procedure: Initial Library Screening: After each panning round showing enrichment, 94 individual clones were expressed and tested in an off-phage initial screen for specific binding to mpIgR or hpIgR (respectively depending on the antigen used). Screening of monoclones in an off-phage format was performed by transforming the phagemid pool into a non-amber-suppressor strain of E. coli and picking random colonies. The VHH proteins were recovered in the periplasmic fraction by performing osmotic shock. Periplasmic fractions containing His-tagged nanobodies were tested for binding to hpIgR or mpIgR. Bound nanobody was detected with a polyclonal anti-alpaca VHH domain antibody. Each clone was also tested for non-specific binding to BSA in parallel. The ELISA values obtained on BSA were subtracted from the ELISA values obtained on the respective pIgR antigen.
# Repeat Testing of Positive Hits: The hits identified in the initial screen of the phage pools were re-tested for binding to either hpIgR or mpIgR. Periplasmic fractions were prepared again by performing osmotic shock. Periplasmic fractions containing His-tagged nanobodies were tested for binding to mpIgR. In this assay, bound nanobody was detected with an anti-VHH antibody. Each clone was also tested for non-specific binding to BSA in parallel. The ELISA values obtained on BSA were subtracted from the ELISA values obtained on the respective pIgR antigen.
# T1 sequence (P01833 19-638 limits assumed): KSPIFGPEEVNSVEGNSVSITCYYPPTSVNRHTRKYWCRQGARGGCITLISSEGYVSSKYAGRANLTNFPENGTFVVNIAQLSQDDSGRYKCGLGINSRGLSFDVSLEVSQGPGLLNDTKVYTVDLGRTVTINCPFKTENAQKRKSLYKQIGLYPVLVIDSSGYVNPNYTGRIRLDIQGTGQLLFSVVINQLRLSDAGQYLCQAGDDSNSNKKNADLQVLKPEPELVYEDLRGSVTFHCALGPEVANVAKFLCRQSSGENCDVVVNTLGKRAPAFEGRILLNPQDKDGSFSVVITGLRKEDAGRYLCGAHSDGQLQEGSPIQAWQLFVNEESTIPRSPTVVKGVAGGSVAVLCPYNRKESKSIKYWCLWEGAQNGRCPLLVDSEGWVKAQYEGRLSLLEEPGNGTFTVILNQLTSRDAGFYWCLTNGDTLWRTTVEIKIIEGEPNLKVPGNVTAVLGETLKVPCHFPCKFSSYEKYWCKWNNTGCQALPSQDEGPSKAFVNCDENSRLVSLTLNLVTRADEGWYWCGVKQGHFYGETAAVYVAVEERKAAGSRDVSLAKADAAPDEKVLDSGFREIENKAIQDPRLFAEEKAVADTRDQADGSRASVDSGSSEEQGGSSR
row,ELISA (OD),Binder
1,2.09 OD,01F04R2LS His-tagged VHH (VHH) VHH: EVQLVESGGGLVQTGGSLRLSCAASGRTFSSYAMGWFRQAPGKEPERDFVAALRWSNDRTYYKYYADSVKGRFTISRDNAKNTVYLQMNTLKPEDTAVYYCAGGNYFSDPRVDKEYNYWGQGTQVTVSS
2,0.48 OD,01A07R3LS His-tagged VHH (VHH) VHH: QVQLVESGGGLVQAGDSLRLSCAASGRTFPTYAMGWFRQAPGKEREFVATIRWSGSTQYKYYADFVKGRFTISRDNAKNTVYLQMDSLKPEDTAVYYCAATTLLGDPRALNEYAYWGQGTQVTVSS
3,2.06 OD,01D04R3LS His-tagged VHH (VHH) VHH: EVQLVESGGGLVQAGGSLRLSCAASGRTFRSYAMGWFRQAPGKEREFVADISWRGGRLYYADSVKGRFTISRDNAKNTVYLQMNSLKPEDTAVYYCAATGDQPAFTTAQGMGAMLEYDYWGQGTLVTVSS
4,2.4 OD,01F05R2LS His-tagged VHH (VHH) VHH: QVQLVESGGGLVQAGGSLRLSCAASGSIFAINGMGWYRQAPGKQRELVAVITRGGSTNYADSVKGRFTISRDNAKNTVSLQMNSLKPEDTAVYYCAATGVLAGWAAGDGMDYWGKGTLVTVSS
5,0.55 OD,01D09R3 His-tagged VHH (VHH) VHH: QVQLVESGGGLVQAGGSLRLSCAASGRTFSVYAMGWFRQAPGKERQFVAAITWSGGSTSYADSVKGRFTISRDNAKNTVYLQMNILKPEDTAVYYCAAATNPYFSDYYPDLKYEFDYWGQGTLVTVSS
6,1.96 OD,01E10R3 His-tagged VHH (VHH) VHH: QVQLVESGGGLVQSGGSLRLSCAASGRTFSDYAMGWFRQAPGKERELVAAITWNGGSTYYADSVKGRFTISRDNAKNTVDLQMNSLKPEDTAVYYCAADPLNSDSAGTYDYWGQGTLVTVSS
7,1.68 OD,01A07R3 His-tagged VHH (VHH) VHH: EVQLVESGGGLVQTGESLRLSCAASGRAFSDLRMAWFRQVPGKEREFVAAVEWRGSSRYYYSADSVKGRFTISRTSPKGETYLQMNGLKPEDTAVYYCAAVSPVVGDPRNSDTYNYWGQGTQVTVSS
8,2.13 OD,01E04R3LS His-tagged VHH (VHH) VHH: EVQLVESGGGLVQAGDSLRLSCAASGRTFTTYVMGWFRQAPGKDREFVATITWSGSTNYKYYADPVKGRFTISRDNAKNTVYLQMNSLKPEDTAVYYCTSSTVVTDPRKLNEYAYWGQGTLVTVSS
9,2.15 OD,01A04R3LS His-tagged VHH (VHH) VHH: QVQLVESGGGSVQPGGSLRLSCAASGIDVSISTIMWYRQPPGRQRELVADVIPSGRSTTYTESVKGRFTVTRDNAKNTVYLQMSGLKPEDTAVYYCNAFVRRENYWGQGTQVTVSS
10,1.07 OD,01E03R3 His-tagged VHH (VHH) VHH: QVQLVESGGGLVQTGGSLRLSCAASGRTFSVYRVGWFRQAPGKEREFVAAVIWSGASTYKYAADSVKGRFTISRDNAENTVYLQMNSLKPEDTAVYYCAADPLGLPGPDVRVEGGYRHWGQGTLVTVSS
11,2.11 OD,01C03R3LS His-tagged VHH (VHH) VHH: EVQLVESGGGLVQPGGSLRLSCVASGLPGSSSRMAWFAQAPGKEREFVAAIAWRGRTSYKYYSDSVKGRFTVSGDNAKRTLDLQMKDLNPEDTALYFCAAHPNDDGDPRISGNYQYWGQGTQVTVSS
12,1.54 OD,01G07R2L His-tagged VHH (VHH) VHH: QVQLVESGGGLVQPGGSLRLSCVASGLPFSSSRMAWFAQAPGKEREFVAAIGWRGRTSYKYYADSVKGRFTVSGDNAKKTLDLQMKDLKPEDTALYFCAAHPNDDGDPRISGNYQYWGQGTQVTVSS
13,1.98 OD,01F04R3LS His-tagged VHH (VHH) VHH: EVQLVESGGGLVQAGGSLRLSCAASGRTFSRYAMGWFRQAPGKEREFVAAIAWSGGAIYYADFVKGQFTISRDNAKNTVDLEMNRLKPEDTAVYYCGSTRDPRVGDKKFYDYWGQGTQVTVSS
14,1.78 OD,01B12R2 His-tagged VHH (VHH) VHH: EVQLVESGGGLVQAGGSLRLSCAASGRTFSSGIMGWFRQAPGKEREFVAAIEWSGGNTYKYYAESVKGRFAISRDNAKTTAYLQMGSLNPEDTALYYCAADESPSRYIDLRRPAPYHYWGQGTLVTVSS
15,2.1 OD,01E05R2 His-tagged VHH (VHH) VHH: QVQLVESGGGLVQAGGSLRLSCAASGRAFSSGRMGWFRQAPGKEREFVAAISWSGHTTYKYYADSVKGRFTISRENAKNTVSLQMNSLKPEDTAVYYCAARQSLVAGGDPRGQSEYDYWGQGTLVTVSS
16,1.3 OD,01C11R2 His-tagged VHH (VHH) VHH: EVQLVESGGGLVQTGGSLRLSCAASGRTFSTYRMGWFRQAPGKEREFVAAISWSTGSTYYADSVKGRFAISRDNAKNTIYLQMNSLKPEDTAVYYCAAGMVATTRSSAYPYWGQGTQVTVSS
17,2.2 OD,01E01R3LS His-tagged VHH (VHH) VHH: QVQLVESGGGLVQAGGSLRLSCAASGRSFSSYNMGWFRQAPGKERDLVAVVTWSGGGTSYADSVKGRFTIARDNANARLYLEMTSLKPEDTAIYYCAATQDWYGGTRAFRAASFHSWGQGTQVTVSS
18,2.18 OD,01H03R2L His-tagged VHH (VHH) VHH: EVQLVESGGGLVRAGGSLRLSCAASGRSFSSYNMGWFRQAPGKERDLVAVVTWSGGGTSYADSVKGRFTISRDNANARLYLEMTSLKPEDTAIYYCAATQDWYGGTRAFHAASFHSWGQGTLVTVSS
19,2.26 OD,01C02R2 His-tagged VHH (VHH) VHH: EVQLVESGGGLVQAGGSLRLSCAASGRSYAMGWFRQAPGKEREFAAAISWSGSRTYYADAVKGRFTISRDNAKNTVYLQMNSLKPEDTAVYYCAADPDGTVVASSGWTNSYEYGYWGQGTLVTVSS
20,2.37 OD,01C03R2L His-tagged VHH (VHH) VHH: EVQLVESGGGLVQAGGSLRLSCAASGRTLRSYIVGWFRQAPGKEREFVAAVTWSDGRRVTADPVKGRFTISRDNAKNTVYLQMDSLKPEDAAVYYCAVSHGGAYVESRAYEYWGQGTQVTVSS
21,2.45 OD,01D02R3LS His-tagged VHH (VHH) VHH: QVQLVESGGGLVQAGDSLTLSCAASGRSVGFDTYGMAWFRQAPGKEREFVASIAYNGETTSYADSVQGRFTVTRENAKNTIALRMNGLKPDDTAVYYCAAAQYYLTGTSFPAKFWGQGTLVTVSS
22,1.8 OD,01C02R3 His-tagged VHH (VHH) VHH: QVQLVESGGGLVQAGGSLRLSCAASGLSFSSYTMGWFRQVPGKERELISAIHWSGGPTFYSNSVKGRFTISRDNAKDTVYLQMNSLKPEDTAVYYCTAEPVGSMISPDWTYWGQGTLVTVSS
23,2.14 OD,01F03R2LS His-tagged VHH (VHH) VHH: EVQLVESGGGLVQAGDSLRLSCAASGRTGSSGAMGWFRQGPGKEREFVAALMWRNTVTYKYYEDSVKGRFTISRDNAKNTAYLQMNSLKPEDTAVYYCAADPDTYGDPRNSGAYDYWGQGTLVTVSS
24,0.56 OD,01C03R3 His-tagged VHH (VHH) VHH: QVQLVESGGGLVQAGGSLRLSCAASGRTFSSYAMGWFRQAPGKEREFVAAIHWNGASTYRYSADSVKGRFTISRDNAKNTVYLQMNSLKPEDTAAYYCAASPPPTVGDVRDPANYDSWGQGTLVTVSS
25,1.95 OD,01D01R3 His-tagged VHH (VHH) VHH: EVQLVESGGGLVQAGGSLRLSCAASGRTFSVYGMGWFRQAPGQERAFVAAISWSDGSTYYADSVKGRFTISRDNAKNTMYLQMNSLKPEDTAVYFCAADLTGWGLDADVSEYDYWGQGTQVTVSS
26,2.13 OD,01E03R2 His-tagged VHH (VHH) VHH: EVQLVESGGGLVQAGGSLRLSCAASGRTFSVYGMGWFRQAPGQERAFVAAISWSDGSTYYADSVKGRFTISRDNAKNTMYLQMNSLKPEDTAVYFCAADLTGWGLDADVSEYDYWGQGTLVTVSS
27,0.73 OD,01G04R3 His-tagged VHH (VHH) VHH: QVQLVESGGGLVQAGGSLRLSCAASGRTFSVYGMGWFRQAPGQERAFVAAISWSDGSTYYADSVKGRFTISRDNAKNTMYLQMNSLKPEDTAVYFCAADLTGWGLDADVSEYDYWGQGTQVTVSS
28,1.35 OD,02B11R3 His-tagged VHH (VHH) VHH: EVQLVESGGGLVQAGGSLRLSCAASGRTFSPYGMGWFRQTPGKERAFVAAVDWNDGSTYYSDSVKGRFTISRDNAKNTVYLQMNSLKSEDTAVYYCAADLTGWGLDADVSEYDYWGQGTLVTVSS
29,1.69 OD,01E02R3LS His-tagged VHH (VHH) VHH: EVQLVESGGGLVETGGSLRLSCAASGRTESTYTMAWFRQAPGKERERVATISFSGSTTTYLASVQGRFTISRDGAKNTIFLQMNGLKPEDTAVYYCALDTRRRVGSSPRFYDYWGQGTLVTVSS
30,1.85 OD,01C12R2 His-tagged VHH (VHH) VHH: EVQLVESGGGLVQAGGSLRLSCAASGRTFGSYSMGWFRQAPGKEREFVGAISWSGSSTYKYYEDSVKGRFTISRDNAKNTVPLQMNSLKPEDTGVYFCGGTMERRDPRRTSAYDYWGQGTLVTVSS
